Consider 2 compounds from patent US20090227528A1, “Pulmonary administration of an antithrombotic compound” (priority 2004, published 2009).

Where two headings read alike, the source gives them in different places.

Data set [1] in a line: Comparative study between intravenous and intratracheal administration of Org 42675 (plasma concentration via anti-Xa activity, amidolytic S2222). As to conditions: male, Wistar, rat; for AUC(0-inf) / AUC(0-t) / Cmax / bioavailability: 100 nmol/kg; for bioavailability: other: intratracheal, 100 nmol/kg intratracheal vs i.v. (100%), read-out: F (% bioavailabilty). It is filed as in vivo, male Wistar rats. As to the method: The test was carried out in male Wistar rats of 300-400 gr. The rats were anaesthetised by inhalation of a mixture of O2/N2O/isoflurane, after which the right jugular vein was cannulated. Translumination of the neck enabled visibility of the vocal cords and an oral needle was inserted when the vocal cords were open after which 100 μl/300 gr body weight of a solution prepared from the pharmaceutical formulation of Example 1, diluted with an aqueous 0.9% sodium chloride solution, containing 300 nmol of Org 42675/ml was instilled at approximately 1 cm before the bifurcation of the trachea. The same solution and dose was also used to perform the i.v. study. After i.v. administration blood was sampled at 1, 6, 15, 30 and 60 minutes and after 2, 4, 7 and 24 hours. After intra-tracheal administration blood was sampled at 0.5-1-2-4-7 and 24 hours after administration. Blood was centrifuged and the plasma was siphoned off and stored at −20° C. until use. The concentration of Org 42675 was measured amidolytically with S2222 (Chromogenix, Chromogenics Ltd, Molndal, Sweden) by determination of the anti-Xa activity based on the method of Teien and Lie in the obtained plasma samples against a calibration curve which was made of the stock solution of 300 nmol/ml itself. (Teien A N, Lie M. Evaluation of an amidolytic heparin assay method increased sensitivity by adding purified antithrombin III. Thromb. Res. 1977, 10: 399-410). The concentration in the samples was expressed in nmol/ml and the kinetic parameters were calculated with the noncompartment model of WinNonlin (see Tables 1 and 2). After intratracheal administration the maximum concentration was already obtained at 0.5 hour after administration which was also the first time point of blood collection.

For data set [2] the following is noted: in vivo; cited from earlier work.
For data set [3] the following is noted: rabbit, in vivo; cited from earlier work.
Where [4] appears, read: inhaled or intranasal, 100 nmol/kg intratracheal, individual rats.
Where [5] appears, read: inhaled or intranasal, 100 nmol/kg intratracheal, mean (n=3).
The mark [6] stands for this setting: iv, 100 nmol/kg intravenous, individual rats.
Setting [7] is: iv, 100 nmol/kg intravenous, mean (n=2).

For `COc1cc(C)c(S(=O)(=O)NC(CC(=O)NCCCC(=O)NCCOCCOCCOCCO[C@H]2[C@H](OC)[C@@H](OC)[C@@H](O[C@H]3[C@H](OC)[C@@H](OC)[C@H](O[C@H]4[C@H](OS(=O)(=O)O)[C@@H](OS(=O)(=O)O)[C@@H](O[C@H]5[C@H](OC)[C@@H](OC)[C@H](O[C@H]6[C@H](OC)[C@@H](OS(=O)(=O)O)[C@@H](OC)O[C@@H]6COS(=O)(=O)O)O[C@H]5C(=O)O)O[C@@H]4COS(=O)(=O)O)O[C@@H]3C(=O)O)O[C@@H]2COS(=O)(=O)O)C(=O)NC(Cc2ccc(C(=N)N)cc2)C(=O)N2CCCCC2)c(C)c1C` (stereo partly drawn) [Org 42675], in data set [1] (setting [4]), the Tmax is 30 min. Besides, the area under the curve AUC(0-inf) worked out at 5.53 µM·h in data set [1] (setting [4]), 5.07 ± 0.24 µM·h in data set [1] (setting [5]), 8.46 µM·h in data set [1] (setting [6]) and 7.32 ± 1.03 µM·h in data set [1] (setting [7]). In addition, the AUC(0-t) stood at 5.4 µM·h in data set [1] (setting [4]), 4.91 µM·h in data set [1] (setting [5]), 8.35 µM·h in data set [1] (setting [6]) and 7.32 µM·h in data set [1] (setting [7]). In addition, the Cmax in data set [1] (setting [4]) stood at 640 nM; in data set [1] (setting [5]), 770 nM; in data set [1] (setting [6]), 3180 nM; in data set [1] (setting [7]), 2930 nM. For the same compound, the bioavailability in data set [1] (individual rats) worked out at 75.5%; in data set [1] (mean (n=3)), 71 ± 3%.

With heparin, in data set [2], the Absolute bioavailability is listed as 35-60%. Besides, in data set [3], the bioavailability entry was “low” and the pharmacokinetics entry is listed as “poor”.
